The results in this text go back to PMC9974998, “Structural mechanism for inhibition of PP2A-B56α and oncogenicity by CIP2A” (Nature Communications, 2023).

No end group written: not given here. *: point of attachment. Biotin = O=C1N[C@H]2[C@H](CS[C@H]2CCCCC(=O)*)N1

B1: B56α (recombinant, WT) (natural protein)
chain: not shown
notes: PP2A regulatory subunit B56α; pGEX-B56α WT; also called B56α WT; source: E. coli BL21, purified (glutathione agarose, GST removed with AcTEV); not shown: GST, N-terminal, cleaved
B2: GST-CIP2A(1-330) A24E (domain or fragment)
chain: not shown
notes: CIP2A, human, residues 1-330, A24E; also called A24E mutant; source: E. coli BL21, purified (glutathione agarose); not shown: GST, N-terminal, kept
B3: CIP2A(1-330) as used for XL-MS (domain or fragment)
chain: not shown
notes: CIP2A, human, residues 1-330; also called CIP2A(1-330) fragment; source: E. coli BL21, purified (glutathione agarose), dialysed into PBS pH 8, 2 mM DTT, 10% glycerol
B4: B56α Y215Q (natural protein)
chain: not shown
notes: PP2A regulatory subunit B56α with Y215Q; source: purified recombinant
B5: B56α K181A/K217A/K227A (recombinant) (natural protein)
chain: not shown
notes: PP2A regulatory subunit B56α with K181A, K217A and K227A; also called B56α triple mutant
B6: CIP2A peptide (aa18-40) (peptide)
peptide: Biotin-KAVKSEANATQLLRHLEVISGQK
notes: CIP2A, human, head domain residues 18-40; also called CIP2A N-terminal head peptide; CIP2A head peptide; source: synthetic peptide (Fmoc solid phase, HPLC purified, 87% purity)

What all share (conditions): both partners purified
For one assay, the target named is T1, CIP2A(1-560)V5 His (human, UniProt Q8TCG1 1-560).
T1 construct: CIP2A, human, residues 1-560; also called V5-tagged recombinant CIP2A(1-560); source: recombinant
Briefly: pull-down; competition: GST-BubR1(647-720), B56α and CIP2A(1-560)V5, 10 pmol each, glutathione bead pull-down, B56α on BubR1 by Western blot. On the technique in general: Immunoblotting shows a protein as a band on a membrane.

The next assay addresses T2, GST-CIP2A(1-560) K8A (human, UniProt Q8TCG1 1-560, K8A).
T2 construct: CIP2A, human, residues 1-560, K8A; also called CIP2A(1-560) K8A mutant; source: E. coli BL21, purified (glutathione agarose); not shown: GST, N-terminal, kept
Briefly: pull-down; GST pull-down on glutathione agarose; 10 pmol of each protein in 150 µL 50 mM Tris HCl pH 7.5, 150 mM NaCl, 2 mM DTT, 0.2% Igepal, 10% glycerol, 1 h 37 °C; Western blot.

For assay [1], the target named is T3, CIP2A(1-560) as used for XL-MS (human, UniProt Q8TCG1 1-560).
T3 construct: CIP2A, human, residues 1-560; source: E. coli BL21, purified (glutathione agarose), dialysed into PBS pH 8, 2 mM DTT, 10% glycerol
Briefly: cross-linking; XL-MS: CIP2A and B56α mixed 1:2, RT 60 min, about 0.5 mg/mL; DSS 100 or 500 µM (PBS pH 8.0, 2 mM DTT, 10% glycerol, 30 min 37 °C) or PDH + DMTMM (pH 7, 45 min 37 °C); LC-MS/MS, xQuest.

Assay [2] addresses T4, GST-CIP2A(1-560) (human, UniProt Q8TCG1 1-560).
T4 construct: CIP2A, human, residues 1-560; pGEX vector, thrombin-cleavable N-terminal GST; also called GST-tagged CIP2A(1-560) WT; GST-fused CIP2A(1-560); source: E. coli BL21, purified (glutathione agarose); not shown: GST, N-terminal, kept
As to the kind of experiment: pull-down; GST-CIP2A incubated with the pre-assembled PP2A-B56α holoenzyme (A-B56α-PP2Ac), glutathione beads; Coomassie gel and Western blot; CIP2A also titrated against equal molar amounts of PP2A proteins.

For assay [3], the target named is B1. As to the kind of experiment: pull-down; GST pull-down on glutathione agarose; 10 pmol of each protein in 150 µL 50 mM Tris HCl pH 7.5, 150 mM NaCl, 2 mM DTT, 0.2% Igepal, 10% glycerol, 1 h 37 °C; Western blot.
Assay [4] deals with B1. Briefly: cross-linking; XL-MS: CIP2A and B56α mixed 1:2, RT 60 min, about 0.5 mg/mL; DSS 100 or 500 µM (PBS pH 8.0, 2 mM DTT, 10% glycerol, 30 min 37 °C) or PDH + DMTMM (pH 7, 45 min 37 °C); LC-MS/MS, xQuest.
The target in assay [5] is T4, GST-CIP2A(1-560). As to the kind of experiment: pull-down; GST pull-down on glutathione agarose; 10 pmol of each protein in 150 µL 50 mM Tris HCl pH 7.5, 150 mM NaCl, 2 mM DTT, 0.2% Igepal, 10% glycerol, 1 h 37 °C; Western blot.
Assay [6] deals with B1. Briefly: pull-down; competition: B56α pre-incubated with CIP2A peptide (aa.18-40) 30 min 37 °C, then GST-BubR1(647-720) 1 h 37 °C, 10 pmol each, glutathione bead pull-down, Western blot.

As for B1, the binding result (with CIP2A(1-560)V5 His; with GST-CIP2A(1-560) K8A; in assay [1]; with GST-CIP2A(1-560) [2]) was “binds” throughout.
As for B2, in the assay with B56α (recombinant, WT) [3], the binding result was “binds”.
With B3, in the assay with B56α (recombinant, WT) [4], the binding result was “binds”.
On to B4, for which the binding result with GST-CIP2A(1-560) [5] is “binds”.
In the case of B5, the binding result with GST-CIP2A(1-560) [5] is “binds”.
For B6, in the assay with B56α (recombinant, WT) [6], the binding result is listed as “binds”.
